Test results reported in patent US7772181B2, “Personal care compositions comprising modified variant Bowman Birk Protease Inhibitors” (Danisco US Inc., priority 2008, dated 2010).
Positions count from the first letter of the chain named. Numbers in names are those of the source. Blank lines part the entries; values can stand above or below the molecule they belong to.

Molecular target: T1, bovine pancreatic trypsin (Bos taurus, UniProt P00760)
T1 construct: purchased Worthington (Worthington Biochemical Corp.)
T1 sequence (P00760 24-246): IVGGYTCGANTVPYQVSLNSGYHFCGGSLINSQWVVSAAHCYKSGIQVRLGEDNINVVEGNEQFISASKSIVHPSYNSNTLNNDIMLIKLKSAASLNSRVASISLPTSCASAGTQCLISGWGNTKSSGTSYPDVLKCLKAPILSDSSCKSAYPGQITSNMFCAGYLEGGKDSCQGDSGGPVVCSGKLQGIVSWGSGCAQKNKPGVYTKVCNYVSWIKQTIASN
Experiment: Shake flask screen: trypsin inhibition after growth, 2-mercaptoethanol activation and acid/heat treatment
Assay type: biochemical
Conditions: for trypsin inhibitory activity after activation: alternative scaffolds compared with BBIt-AV
Experimental: To increase expression, the gene copy of the selected clones was amplified by sequentially streaking colonies on Luria agar plates with 25 μg/ml chloramphenicol until the growth rate was similar to growth on Luria agar plates without chloramphenicol. Cultures of the selected variants and controls were grown in 3 ml Luria broth with 25 μg/ml chloramphenicol in 15 ml tubes for ˜10 h. These cultures (30 μl) were then used to inoculate 30 ml of MBD medium in 250 ml baffled shake flasks and grown at 37° C. and 225 rpm for ˜60 h.
For selection of the variants with the best yields, the culture broths were processed as follows. The broth was first activated by mixing 20 ml of broth with 20 ml of 0.25 M glycine buffer (pH 9.3) and the pH was adjusted to 9.0 with 50% NaOH. Then, 2-mercaptoethanol was added to the diluted cultures to a final concentration of 2 mM and the cultures were incubated overnight at room temperature with gentle shaking. The BBIt-AV moiety was then cleaved from the fusion protein by acid/heat treatment, which was accomplished by first adjusting the pH of the activated broth to pH 1.9-2.0 with sulfuric acid, and followed by incubation at 60° C. for 16 hours, with shaking. The BBIt-AV-BCE fusion protein and the BCE catalytic domain are not soluble at pH 2, whereas the free BBI species is soluble. After the cleavage reaction, the insoluble material was removed by centrifugation (5 min. at 3,000 rpm) and the supernatant was analyzed for trypsin inhibitory activity as described above. The BBI activity was also determined for the starting material and for the samples taken after activation. The BCE activity of the starting material was also determined as described above. The BBIt-AV:BCE activity ratios were then calculated for each step in process. The modified BBIt-AVs produced at the highest yields following the acid/heat treatment were selected for further study.

B1: BBIt-AV-4D13 insert -A13I-L29P-A40K-F50T-V52A: modified variant BBPI, SEQ ID NO:413 (protein)
chain: DPDDEPSKPCCDPDPDDESSKPCCDQCICTKSNPPQCRCSDMRPNSCHSACKSCKCYNLYGWTCTCADITDFCYEPCKPSE
modifications: synthetic BBPI sequence
yield after acid/heat treatment relative to BBIt-AV-A13I-L29P-A40K-F50T-V52A (SEQ ID NO:601): slightly better yields

B2: BBIt-AV-A13I-L29P-A40K-F50T-V52T: modified variant BBPI, SEQ ID NO:625 (protein)
chain: DPDDESSKPCCDQCICTKSNPPQCRCSDMRPNSCHSACKSCKCYNLYGWTCTCTDITDFCYEPCKPSE
modifications: synthetic BBPI variant
yield after acid/heat treatment relative to BBIt-AV-A13I-L29P-A40K-F50T-V52A (SEQ ID NO:601): somewhat less

B6: BBIt-AV-A13I-L29K-A40K-F50T-V52A: modified variant BBPI, SEQ ID NO:620 (protein)
chain: B2 chain with P31K, T54A
modifications: synthetic BBPI variant
yield after acid/heat treatment relative to BBIt-AV-A13I-L29P-A40K-F50T-V52A (SEQ ID NO:601): significantly lower yields

B8: BBIt-AV-A13I-L29P-A40K-F50K-V52A: modified variant BBPI, SEQ ID NO:624 (protein)
chain: B2 chain with T52K, T54A
modifications: synthetic BBPI variant
yield after acid/heat treatment relative to BBIt-AV-A13I-L29P-A40K-F50T-V52A (SEQ ID NO:601): slightly better yields

B9: BBIt-AV-A13I-L29P-S31R-A40K-F50T-V52A: modified variant BBPI, SEQ ID NO:622 (protein)
chain: B2 chain with S33R, T54A
modifications: synthetic BBPI variant
yield after acid/heat treatment relative to BBIt-AV-A13I-L29P-A40K-F50T-V52A (SEQ ID NO:601): significantly better yields

B11: BBIt-AV-A13I-S25R-L29P-A40K-F50T-V52A: modified variant BBPI, SEQ ID NO:616 (protein)
chain: B2 chain with S27R, T54A
modifications: synthetic BBPI variant
yield after acid/heat treatment relative to BBIt-AV-A13I-L29P-A40K-F50T-V52A (SEQ ID NO:601): significantly better yields

B13: BBIdb-AV: BBdb with CK37281 replacing the second protease inhibitory loop, SEQ ID NO:452 (protein)
chain: DPSESSKPCCDQCACTKSIPPQCRCTDVRLNSCHSACSSCACYNLYGWTCVCVDMKDFCYEPCK
modifications: synthetic BBdb-AV sequence
inhibitory activities after acid/heat treatment relative to BBIt-AV (alternative scaffolds): higher inhibitory activities after acid/heat treatment | trypsin inhibitory activity after activation: greater than that of the BBIt-AV inhibitor but less than that of the BBItc-AV inhibitor

B14: BBIsb3-AV: BBsb3 with CK37281 replacing the second protease inhibitory loop, SEQ ID NO:453 (protein)
chain: DPDDEYSKPCCDLCMCTRSMPPQCSCEDIRLNSCHSDCKSCACYNLYGWTCRCLDTNDFCYKPCKSRDD
modifications: synthetic BBsb3-AV sequence
activation with reducing agent (alternative scaffolds): did not activate with reducing agent | trypsin inhibitory activity after activation: very low trypsin inhibitory activity

B15: BBItc-AV: BBtc with CK37281 replacing the second protease inhibitory loop, SEQ ID NO:454 (protein)
chain: DPSSKWEACCDRCACTKSIPPQCHCADIRLNSCHSACESCACYNLYGWTCRCFDITDFCYKPCSG
modifications: synthetic BBtc-AV sequence
inhibitory activities after acid/heat treatment relative to BBIt-AV (alternative scaffolds): higher inhibitory activities after acid/heat treatment | trypsin inhibitory activity after activation: highest trypsin inhibitory activity after activation

Further lines, results first:

yield after acid/heat treatment relative to BBIt-AV-A13I-L29P-A40K-F50T-V52A (SEQ ID NO:601): slightly better yields
B3: BBIt-AV-A13L-L29P-A40K-F50T-V52A: modified variant BBPI, SEQ ID NO:615 (protein)
chain: B2 chain with I15L, T54A
modifications: synthetic BBPI variant

yield after acid/heat treatment relative to BBIt-AV-A13I-L29P-A40K-F50T-V52A (SEQ ID NO:601): significantly lower yields
B4: BBIt-AV-Q11G-A13I-L29P-A40K-F50T-V52A: modified variant BBPI, SEQ ID NO:614 (protein)
chain: B2 chain with Q13G, T54A
modifications: synthetic BBPI variant

yield after acid/heat treatment relative to BBIt-AV-A13I-L29P-A40K-F50T-V52A (SEQ ID NO:601): significantly better yields
B5: BBIt-AV-A13I-S25R-L29P-S31R-A40K-F50T-V52A: modified variant BBPI, SEQ ID NO:618 (protein)
chain: B2 chain with S27R, S33R, T54A
modifications: synthetic BBPI variant

yield after acid/heat treatment relative to BBIt-AV-A13I-L29P-A40K-F50T-V52A (SEQ ID NO:601): significantly lower yields
B7: BBIt-AV-S4V-A13I-L29P-A40K-F50T-V52A: modified variant BBPI, SEQ ID NO:612 (protein)
chain: B2 chain with S6V, T54A
modifications: synthetic BBPI variant

yield after acid/heat treatment relative to BBIt-AV-A13I-L29P-A40K-F50T-V52A (SEQ ID NO:601): significantly lower yields
B10: BBIt-AV-S5P-A13I-L29P-A40K-F50T-V52A: modified variant BBPI, SEQ ID NO:613 (protein)
chain: B2 chain with S7P, T54A
modifications: synthetic BBPI variant

yield after acid/heat treatment relative to BBIt-AV-A13I-L29P-A40K-F50T-V52A (SEQ ID NO:601): significantly better yields
B12: BBIt-AV-A13I-S25R-L29P-S31A-A40K-F50T-V52A: modified variant BBPI, SEQ ID NO:617 (protein)
chain: B2 chain with S27R, S33A, T54A
modifications: synthetic BBPI variant
